According to the supplement of paper PMC9170038:

Test system: MS2 coat protein
Assay: apparent KD of MS2 coat protein; designed switch direction (-1 OFF switch, 1 ON switch): -1; higher = weaker reporter binding
How it was run: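 Each step of the titration lasted 0.8–1.5 h at the lowest concentration and 10–20 min at the highest. The protein, SNAP-549-labelled MS2 coat protein, went from 0.7 or 1.5 nM doubling to 3 µM over RNA switches transcribed on Illumina chips by stalled E. coli RNA polymerase. Normalised cluster fluorescence was curve-fitted, and the per-design median over clusters is given as apparent KD.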

[1] = input ligand: microRNA oligo, concentration not stated
[2] = Eterna round: R95, input ligand: FMN 200 uM
[3] = Eterna round: R95, input ligand: microRNA oligo, concentration not stated
[4] = Eterna round: R95, input ligand: none

Sequence	apparent KD of MS2 coat protein (input ligand: FMN 200 uM)	apparent KD of MS2 coat protein (input ligand: none)	apparent KD of MS2 coat protein [1]	apparent KD of MS2 coat protein [2]	apparent KD of MS2 coat protein [3]	apparent KD of MS2 coat protein [4]
AAACCCUGAGGAUAUACAUAACAACAAAGCCUCACGUGCCAACAUGAGGAUCACCCAUGUAGAAGGCGGGCCAA [Mod R3 Insanara 14 - Jieux - Exclusion 2] (Eterna round: R97, puzzle: Exclusion 2)	37.3 nM	15.1 nM				
AAACGGCAGGGAGGAUAUGCUUACCUGGGUCGUCUUCGAACAUGAGGAUCACCCAUGUAGUCGACGCAGAAGGCCCUCAAAGCC [JL ViennaUCT Ontiis mod 2] (Eterna round: R96, puzzle: Exclusion NG 2)	47.4 nM	21.5 nM	17.1 nM			
AAACUACUAGGAUAUACAACGGUGUCCUAACUACUAAGAAAACAUGAGGAUCACCCAUGUAGAAGGAGUAGUGA [Lauslabe] (Eterna round: R96, puzzle: Exclusion 2)			28.6 nM			
AAACUCCCGGCAACCGGGAACAUGAGGAUCACCCAUGUGGCGUGACUCAUACGGGCUUUUUGUUCGUUUUAUUCACG [Xeisororer] (puzzle: Sensor v3, turn-off variant 1)				53.4 nM	27.7 nM	63.6 nM
AAACUGAGGCUUUGCUUUAGUCGUACAUGAGGAUCACCCAUGUAGGAUAUGGUAGGCUUUGCUUACCAGAAGGACAGAGUGAUC [JL EXNG3 1.20] (Eterna round: R96, puzzle: Exclusion NG 3)	80.5 nM	279 nM	404 nM			
AAAGAACAUGAGGAUCACCCAUGUGAGGAUAUGCGAAAACCGCUGACAAACCAGACGGGCAGAAGGCAUAUGGU [Birima] (puzzle: Exclusion 1)					56.2 nM	
AAAGACCAAGUGAGGAUAUUAUGGACAAUGGAACAUGAGAAGGCACAUGAGGAUCACCCAUGUGAAUAGGGACG [Eternabot (Original) Solution 22] (Eterna round: R97, puzzle: Brourd's mod of Exclusion 4)	33.5 nM	19.4 nM				
AAAGAGCGAGGAUAUACGUAUCGGUGCGGCCCGCCGAUGUGACAUGAGGAUCACCCAUGUAGAAGGCGCAGAAA [Excls2-X] (puzzle: Exclusion 2)					21.3 nM	
AAAGAGUGAGGAUAUACAUGAGGAUCACCCAUGUACGUAAUACAAUACGGGUGACGACGUAGAAGGCAUUGCUG [Eternabot (Original) Solution 28] (Eterna round: R97, puzzle: Exclusion 3)	198 nM	781 nM				
AAAGGUGAGUAGGAUAUCCACGCACGAAUAAAGGGAGAAGGACUUACAUGAGGAUCACCCAUGUAAGGUGGUAA [Orte] (puzzle: Exclusion 6)				17.1 nM	14.3 nM	13.8 nM
AAAGUACAUGAGGAUCACCCAUGUCAGGAUAUUGCCACAAGGCCCGGAGCCCAGAGCGCGAGAAGGGACAUUAG [Eternabot (Original) Solution 12] (Eterna round: R97, puzzle: Exclusion 1)	55.4 nM	24 nM				
AAAUAACAAGCGAGAUCCUACAUGAGGAUCACCCAUGUGCUCGUCUUAAUAAGUACUAUCACGAAAGUGAUAGUACA [Mat - Sensor v3 - turn-off var 1 - Eli Mod - D67] (Eterna round: R96, puzzle: Sensor v3, turn-off variant 1)	15.8 nM	18.2 nM	333 nM			
AAAUAACAAGCGAGAUCCUACAUGAGGAUCACCCAUGUGCUCGUCUUAAUAAGUACUAUCACGAAAGUGAUAGUACA [Mat - Sensor v3 - turn-off var 1 - Eli Mod - D67] (puzzle: Sensor v3, turn-off variant 1)				16.6 nM	471 nM	16 nM
AAAUAAGAAGGAUAUACAAAUUAAAAGGUCCUUAAGGCAAGACAUGAGGAUCACCCAUGUAGAAGGUCUGAAAA [Teati] (puzzle: Exclusion 2)				39.5 nM	23 nM	22.6 nM
AAAUAAUCAGGAUAUACAUGAGGAUCACCCAUGUACCUCUUGUACGAGGGCCGCCCGUGUAGAAGGGAUGACAA [Arralara] (puzzle: Exclusion 3)				72.6 nM	40.1 nM	40 nM
AAAUACAAGUAAAGAUCCUACAUGAGGAUCACCCAUGUGCUCGUCUUAUAAAGUACUAUCACGAAAGUGAUAGUACA [Sensor 3, v1 - 20] (puzzle: Sensor v3, turn-off variant 1)				88.6 nM	13.9 nM	112 nM
AAAUCACAUGAGGAUCACCCAUGUGAGGAUAUGAUACUAUGUACUUCGGUACAUAGUAUCAGAAGGCAUAUGGA [Ex1-3: 32] (Eterna round: R96, puzzle: Exclusion 1)	39.4 nM	23.7 nM	20.6 nM			

Sequence	apparent KD of MS2 coat protein (input ligand: FMN 200 uM)	apparent KD of MS2 coat protein (input ligand: none)	apparent KD of MS2 coat protein [1]	apparent KD of MS2 coat protein [2]	apparent KD of MS2 coat protein [3]	apparent KD of MS2 coat protein [4]
AAAUCACAUGAGGAUCACCCAUGUGAGGAUAUGAUACUAUGUACUUCGGUACAUAGUAUCAGAAGGCAUAUGGA [Ex1-3: 32] (puzzle: Exclusion 1)					22.9 nM	
AAAUCGAGACGGAGAUCCGACAUGAGGAUCACCCAUGUCUCGUAAGCUUUUUGCUCGUCUUAUACUCCUCUGUUCUC [Elimod 50 - Jieux - Sensor, turn-off variant 1] (Eterna round: R97, puzzle: Sensor, turn-off variant 1)	22.5 nM	22.4 nM				
AAAUCGGAGGAGGAUAUGGUACAGGAAACGGUGCCAGAAGGUUUCACAUGAGGAUCACCCAUGUCAAAUAGCGA [EX6 #59] (Eterna round: R97, puzzle: Exclusion 6)	21.3 nM	20.3 nM				
AAAUUAGCAAGUAGGUCCGACAUGAGGAUCACCCAUGUAAUCUAAAAUUACGCUGCACGAAAGUGCGCUCGUCUUAG [Sensor-V1 #12] (Eterna round: R97, puzzle: Sensor, turn-off variant 1)	439 nM	385 nM				
AAAUUAGCAAGUAGGUCCGACAUGAGGAUCACCCAUGUUAUCUGAAAUAACGCAGCAUGAUUGUGAGCUCGUCUUAG [Sensor-V1 #6] (Eterna round: R97, puzzle: Sensor, turn-off variant 1)	80.8 nM	105 nM				
AACAAACAUGAGGAUCACCCAUGUCAGGAUAUGGCGGCUAGUGUGCCACCGUACACUACCAGAAGGGACUGGGU [Diedtiis] (puzzle: Exclusion 1)					111 nM	
AACACACAUGAGGAUCACCCAUGUGAGGAUAUCGUCGAGGUUGUAAUGCCAACCGUGACGAGAAGGCACUUGGG [Exclusion 1 (Mod 3.1 solution 40 by Eternabot)] (Eterna round: R97, puzzle: Exclusion 1)	44.4 nM	282 nM				
AACAGGUCAGGAUAUACAUGAGGAUCACCCAUGUAGACUUCUGGUCUACCGAGACCGUGUAGAAGGGACCUGAA [Exclusion 3 (MOD3 of #98 Marzena11)] (Eterna round: R97, puzzle: Exclusion 3)	104 nM	35.7 nM				
AACAGUACAGGAUAUACAUGAGGAUCACCCAUGUGAGAUUUAAGUGGCGUACCACAAAGUAGAAGGGUACUGGA [JL Maslow Revisted mod 5] (Eterna round: R96, puzzle: Exclusion 3)	230 nM	37.3 nM	29.6 nM			
AACAUGGCAGGAUAUUGAAAAUUGCACUUGAGGAUCACCCAAGUGGUUCUGCGGGCGAAGUAAGAAGGGCCUAAAA [Xeraabi] (Eterna round: R97, puzzle: Exclusion 5)	232 nM	27.3 nM				
AACCAACAUGAGGAUCACCCAUGUGAGGAUAUAGCUAACGACCAGACCUGGAAUGUUGUUAGAAGGUGCAGGGU [Eternabot (Original) Solution 4] (Eterna round: R97, puzzle: Exclusion 1)	44.4 nM	36.2 nM				
AACCAGCGAGGAUAUCGUUCGGAUAACAUGAGGAUCACCCAUGUGAGUCGUGUUUACGAACGAGAAGGCGCGACUC [Cequus] (Eterna round: R97, puzzle: Exclusion 5)	218 nM	798 nM				
AACCAGCGAGGAUAUGCUUGAGCUUGUUCUGGUUAUAAUCGACUUGAGGAUCACCCAAGUAGAAGGUGCUGGCG [EX2 #57] (Eterna round: R97, puzzle: Exclusion 2)	42.6 nM	20 nM				
AACCCUGUAGGAUAUCAGGGACUACACAUGAGGAUCACCCAUGUGACCUCAACCUAGUGUUGAGAAGGACAGGUAU [Eternabot (Original) Solution 22] (Eterna round: R97, puzzle: Exclusion 5)	50.9 nM	49.1 nM				
AACCGCGGAGGAUAUACACGGUGAUACUGAACUCCGGCACGACAUGAGGAUCACCCAUGUAGAAGGCCGAAUAU [EX2 B.13] (Eterna round: R97, puzzle: Exclusion 2)	151 nM	21.3 nM				
AACCUGAGGCAAAGCUUUAGGUGUACAUGAGGAUCACCCAUGUAGGAUAUGGUAGGCAAAGCUUACCAGAAGGACAUUAUGAUG [Mat - Exclusion NG 3 - Mod of JL - D51] (Eterna round: R96, puzzle: Exclusion NG 3)	104 nM	62.9 nM	49.5 nM			
AACCUGAGGCAAAGCUUUAGGUGUACAUGAGGAUCACCCAUGUAGGAUAUGGUAGGCUUUGCUUACCAGAAGGACAUAAUGAUG [Mat - Exclusion NG 3 - Mod of JL - D46] (Eterna round: R96, puzzle: Exclusion NG 3)	92.2 nM	53.3 nM	42 nM			
